# Measurements taken from patent publication US20130316022A1, “METHOD TO ENHANCE ANTIMICROBIAL ACTIVITY BY INCREASING pH” (University of Iowa Research Foundation, priority 2012, published 2013).
# Experiments:
# [1] = tested on: S. aureus Xen29; experiment: S. aureus luminescence antibacterial assay, effect of pH; type: cell-based
# Description: (§1) To assess the effect of pH on the antibacterial activity of lysozyme and lactoferrin, we used a luminescence assay of bacterial viability that has been described previously ^15. The bacteria used were S. aureus Xen29 (Caliper LifeSciences Bioware™, Hopkinton, Mass.) and E. coli DH5a (GIBCO BRL, Life Technologies, Grand Island, N.Y.) expressing a luminescence plasmid pCGLS1. E. coli were grown in Luria-Bertani medium containing ampicillin (100 μg/ml, to maintain the plasmid) at 30° C. with shaking. For S. aureus, kanamycin 10 μg/ml was used instead of ampicillin. Log phase bacteria were centrifuged and resuspended in 1% Tryptic Soy Broth medium with 10 mM HEPES titrated to pH values from 6.8-8.0. E. coli (5×10^6 CFU) or S. aureus (5×10^5 CFU) were incubated with the indicated concentrations of lysozyme or lactoferrin in 96-well plates (Optiplate-96, Perkin Elmer, Waltham, Mass.) in a total volume of 120 μl. Controls were the same conditions in the same plates, but without lysozyme or lactoferrin. After incubation at 30° C. for the indicated times, luminescence was measured with a luminometer (Spectra Max L, Molecular Devices, Sunnyvale, Calif.) and was reported as relative light units (RLU). A previous study^16 determined that reductions in luminescence have an excellent correlation with a decrease in CFU.
# [2] = tested on: E. coli DH5a expressing luminescence plasmid pCGLS1; experiment: E. coli luminescence antibacterial assay, effect of pH; type: cell-based; details: pH values from 6.8-8.0 (FIG. 8)
# Description: as §1
Molecule,"relative luminescence compared to control ([1]; pH 6.8, 4 mg/ml lactoferrin, 60 minutes)","relative luminescence compared to control ([1]; pH 7.2, 4 mg/ml lactoferrin, 60 minutes)","relative luminescence compared to control ([1]; pH 7.6, 4 mg/ml lactoferrin, 60 minutes)","relative luminescence compared to control ([1]; pH 8.0, 4 mg/ml lactoferrin, 60 minutes)",effect of pH on E. coli killing [2],"relative luminescence compared to control ([1]; pH 6.8, 1.25 mg/ml lysozyme, 30 minutes)","relative luminescence compared to control ([1]; pH 7.2, 1.25 mg/ml lysozyme, 30 minutes)","relative luminescence compared to control ([1]; pH 7.6, 1.25 mg/ml lysozyme, 30 minutes)","relative luminescence compared to control ([1]; pH 8.0, 1.25 mg/ml lysozyme, 30 minutes)"
"lactoferrin (protein, UniProt P02788 20-710, looked up, endogenous ASL antimicrobial protein, tested at 4 mg/ml) Lactotransferrin: GRRRSVQWCAVSQPEATKCFQWQRNMRKVRGPPVSCIKRDSPIQCIQAIAENRADAVTLDGGFIYEAGLAPYKLRPVAAEVYGTERQPRTHYYAVAVVKKGGSFQLNELQGLKSCHTGLRRTAGWNVPIGTLRPFLNWTGPPEPIEAAVARFFSASCVPGADKGQFPNLCRLCAGTGENKCAFSSQEPYFSYSGAFKCLRDGAGDVAFIRESTVFEDLSDEAERDEYELLCPDNTRKPVDKFKDCHLARVPSHAVVARSVNGKEDAIWNLLRQAQEKFGKDKSPKFQLFGSPSGQKDLLFKDSAIGFSRVPPRIDSGLYLGSGYFTAIQNLRKSEEEVAARRARVVWCAVGEQELRKCNQWSGLSEGSVTCSSASTTEDCIALVLKGEADAMSLDGGYVYTAGKCGLVPVLAENYKSQQSSDPDPNCVDRPVEGYLAVAVVRRSDTSLTWNSVKGKKSCHTAVDRTAGWNIPMGLLFNQTGSCKFDEYFSQSCAPGSDPRSNLCALCIGDEQGENKCVPNSNERYYGYTGAFRCLAENAGDVAFVKDVTVLQNTDGNNNEAWAKDLKLADFALLCLDGKRKPVTEARSCHLAMAPNHAVVSRMDKVERLKQVLLHQQAKFGRNGSDCPDKFCLFQSETKNLLFNDNTECLARLHGKTTYEKYLGPQYVAGITNLKKCSTSPLLEACEFLRK",85.0 ± 9.3,73.6 ± 8.2,60.8 ± 4.8,39.8 ± 5.0,increasing pH increased S. aureus and E. coli killing,–,–,–,–
"lysozyme (protein, UniProt P61626 19-148, looked up, endogenous ASL antimicrobial protein, tested at 1.25 mg/ml) Lysozyme C: KVFERCELARTLKRLGMDGYRGISLANWMCLAKWESGYNTRATNYNAGDRSTDYGIFQINSRYWCNDGKTPGAVNACHLSCSALLQDNIADAVACAKRVVRDPQGIRAWVAWRNRCQNRDVRQYVQGCGV",–,–,–,–,increasing pH increased S. aureus and E. coli killing,49.1 ± 3.4,43.5 ± 1.5,30.6 ± 2.3,23.4 ± 0.8
